This data set concerns the target carcinoembryonic antigen (CEA) (UniProt P06731 35-685). The data set is described as follows: electrochemical impedance spectroscopy (aptasensor); PBS; linear 0.77-14 ng/mL, LOD 0.45 ng/mL, saturated above 21 ng/mL; PBS pH 7.4 or undiluted human serum; surface blocked with 1% BSA; K3[Fe(CN)6] and KCl listed as reagents; binding temperature not stated. Particulars: protein: commercial.

Chain of carcinoembryonic antigen (CEA) (P06731 35-685): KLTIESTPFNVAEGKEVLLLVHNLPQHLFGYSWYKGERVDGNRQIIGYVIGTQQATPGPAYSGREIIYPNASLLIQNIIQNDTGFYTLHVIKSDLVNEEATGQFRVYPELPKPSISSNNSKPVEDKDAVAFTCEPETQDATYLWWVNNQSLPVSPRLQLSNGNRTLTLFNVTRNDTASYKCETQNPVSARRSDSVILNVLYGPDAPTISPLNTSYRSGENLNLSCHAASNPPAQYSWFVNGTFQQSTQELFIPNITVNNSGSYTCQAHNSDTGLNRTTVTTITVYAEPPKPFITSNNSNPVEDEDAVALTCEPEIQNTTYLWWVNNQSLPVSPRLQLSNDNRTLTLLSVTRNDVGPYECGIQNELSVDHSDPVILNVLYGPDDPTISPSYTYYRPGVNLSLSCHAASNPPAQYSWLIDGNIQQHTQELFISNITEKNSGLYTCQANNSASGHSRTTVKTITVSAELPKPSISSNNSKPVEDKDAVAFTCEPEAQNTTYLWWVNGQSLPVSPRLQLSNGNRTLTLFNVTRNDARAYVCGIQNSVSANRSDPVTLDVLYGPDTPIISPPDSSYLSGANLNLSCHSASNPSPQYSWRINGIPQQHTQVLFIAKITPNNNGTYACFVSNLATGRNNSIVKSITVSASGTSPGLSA

For the molecule GACGATAGCGGTGACGGCACAGACGTCCCGCATCCTCCG (ssDNA, 5'-NH2) [CEA DNA aptamer], the binding result is given as “binds”.

Values taken from publication PMC7085636, “A Graphene-PEDOT:PSS Modified Paper-Based Aptasensor for Electrochemical Impedance Spectroscopy Detection of Tumor Marker”.
